The text below walks through data of patent US20160039947A1 (Eli Lilly, published 2016).

One assay deals with T1, hEGFR-Fc (human, UniProt P00533 25-645).
T1 construct: Biotin-labelled (EZ-Link Sulfo-NHS-LC-Biotin) as detection reagent in the ELISA; unlabelled second injection in SPR; also called hEGFR-Fc-biotin; not shown: Fc part of the bought fusion protein
As to the kind of experiment: sandwich ELISA: hHER-2-Fc coated, BsAb, hEGFR-Fc-biotin detection. The protocol:
(§1) Two sandwich ELISAs are developed, one for detecting anti-HER-2/anti-EGFR BsAb activity and one for detecting anti-cMET/anti-Axl BsAb activity. For both ELISAs, clear 96-well round bottom high binding Immulon microtiter plates (Greiner bio-one, cat#650061) are coated overnight at 2-8° C. with 50 μL/well 1 μg/mL hHER-2-Fc or 1 μg/mL hHGFR(cMet)-Fc (both from R&D systems) in a 50 mM Na₂CO₃ pH 8 buffer. The plates are washed 4 times with PB ST and blocked with 100 μL/well casein buffer (Pierce) for 1 hr at 37° C. The plates are then washed 4 times with PBST and the parental IgG controls or BsAb IgG test articles are added at 50 μL/well and 5 μg/mL and serially diluted 1:3 down the plate. The test articles are incubated on the plate for 1 hr at 37° C. The plates are then washed 4 times with PBST and 50 μL/well 0.2 μg/mL hEGFR-Fc-biotin or hAxl-Fc-biotin (both from R&D systems) is added for 1 hr at 37° C. The plates are then washed 4 times with PBST followed by the addition of a 50 μL/well streptavidin-HRP (Jackson Labs) diluted 1:2000 in PBST. The streptavidin-HRP is incubated in each well for 1 hr at 37° C. The plates are then washed 4 times with PBST and 100 μL/well 1-component TMB substrate is added (KPL laboratories). After approximately 10 minutes, […] 1% H₃PO₄ (in H₂O) is added to each plate to quench the reaction. Absorbance (450 nm) of every well in the plates is read using a SpectraMax UV plate reader (Molecular Devices). Biotin-labeling of the hEGFR-Fc and hAxl-Fc proteins is performed using EZ-Link Sulfo-NHS-LC-Biotin (Thermo Scientific) according to the manufacturer's protocol.
(In general: In an ELISA, binding on a coated surface is turned into a signal by an enzyme label.)

The next assay addresses T2, hHGFR(cMet)-Fc (human, UniProt P08581 25-932).
T2 construct: Coated in the sandwich ELISA; second injection in SPR; not shown: Fc part of the bought fusion protein
As to the kind of experiment: sandwich ELISA: hHGFR(cMet)-Fc coated, BsAb, hAxl-Fc-biotin detection. The protocol: as §1

T2 sequence (P08581 25-932): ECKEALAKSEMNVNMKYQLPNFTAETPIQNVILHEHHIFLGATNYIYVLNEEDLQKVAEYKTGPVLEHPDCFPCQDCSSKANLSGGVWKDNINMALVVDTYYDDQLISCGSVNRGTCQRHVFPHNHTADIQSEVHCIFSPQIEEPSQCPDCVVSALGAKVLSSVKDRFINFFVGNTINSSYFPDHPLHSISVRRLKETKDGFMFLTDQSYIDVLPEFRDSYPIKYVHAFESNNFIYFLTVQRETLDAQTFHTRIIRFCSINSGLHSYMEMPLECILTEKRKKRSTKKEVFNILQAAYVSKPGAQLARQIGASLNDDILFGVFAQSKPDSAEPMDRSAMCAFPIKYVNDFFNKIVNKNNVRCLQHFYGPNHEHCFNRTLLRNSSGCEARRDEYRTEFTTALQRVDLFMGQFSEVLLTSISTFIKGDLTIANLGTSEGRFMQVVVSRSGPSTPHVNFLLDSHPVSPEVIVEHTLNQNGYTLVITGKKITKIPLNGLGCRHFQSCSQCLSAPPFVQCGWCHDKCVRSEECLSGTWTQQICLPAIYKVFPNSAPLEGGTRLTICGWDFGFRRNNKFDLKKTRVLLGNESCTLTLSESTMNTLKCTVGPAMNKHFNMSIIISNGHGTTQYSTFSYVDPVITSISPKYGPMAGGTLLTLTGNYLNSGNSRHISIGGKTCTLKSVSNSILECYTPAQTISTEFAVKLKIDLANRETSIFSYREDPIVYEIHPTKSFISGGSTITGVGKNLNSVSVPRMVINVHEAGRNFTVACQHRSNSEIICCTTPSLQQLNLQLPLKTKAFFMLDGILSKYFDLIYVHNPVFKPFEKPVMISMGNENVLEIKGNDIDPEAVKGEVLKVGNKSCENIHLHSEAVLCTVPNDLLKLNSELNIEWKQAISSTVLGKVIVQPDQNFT

B1: HEControl λλ (anti-HER-2/anti-EGFR IgG BsAb without Fab redesigns) (bispecific antibody)
heavy 1: EVQLVESGGGLVQPGGSLRLSCAASGFTFTDYTMDWVRQAPGKGLEWVADVNPNSGGSIYNQRFKGRFTLSVDRSKNTLYLQMNSLRAEDTAVYYCARNLGPSFYFDYWGQGTLVTVSSASTKGPSVFPLAPSSKSTSGGTAALGCLVKDYFPEPVTVSWNSGALTSGVHTFPAVLQSSGLYSLSSVVTVPSSSLGTQTYICNVNHKPSNTKVDKKVEPKSCDKTHTCPPCPAPELLGGPSVFLFPPKPKDTLMISRTPEVTCVVVDVSHEDPEVKFNWYVDGVEVHNAKTKPREEQYQSTYRVVSVLTVLHQDWLNGKEYKCKVSNKALPAPIEKTISKAKGQPREPQVYTLPPSRDELTKNQVSLTCLVKGFYPSDIAVEWESNGQPENNYDTTPPVLDSDGSFFLYSDLTVDKSRWQQGNVFSCSVMHEALHNHYTQKSLSLSPG
light 1: DIQMTQSPSSLSASVGDRVTITCKASQDVSIGVAWYQQKPGKAPKLLIYSASYRYTGVPSRFSGSGSGTDFTLTISSLQPEDFATYYCQQYYIYPYTFGQGTKVEIKGQPKAAPSVTLFPPSSEELQANKATLVCLISDFYPGAVTVAWKADSSPVKAGVETTTPSKQSNNKYAASSYLSLTPEQWKSHRSYSCQVTHEGSTVEKTVAPTEC
heavy 2: QVQLVQSGAEVKKPGASVKVSCKASGYTFTSHWMHWVRQAPGQGLEWIGEFNPSNGRTNYNEKFKSKATMTVDTSTNTAYMELSSLRSEDTAVYYCASRDYDYDGRYFDYWGQGTLVTVSSASTKGPSVFPLAPSSKSTSGGTAALGCLVKDYFPEPVTVSWNSGALTSGVHTFPAVLQSSGLYSLSSVVTVPSSSLGTQTYICNVNHKPSNTKVDKKVEPKSCDKTHTCPPCPAPELLGGPSVFLFPPKPKDTLMISRTPEVTCVVVDVSHEDPEVKFNWYVDGVEVHNAKTKPREEQYQSTYRVVSVLTVLHQDWLNGKEYKCKVSNKALPAPIEKTISKAKGQPREPQVYTLPPSRKELTKNQVSLTCLVKGFYPSDIAVEWESNGQPENNYKTTPPVLKSDGSFFLYSKLTVDKSRWQQGNVFSCSVMHEALHNHYTQKSLSLSPG
light 2: DIQMTQSPSSLSASVGDRVTITCSASSSVTYMYWYQQKPGKAPKLLIYDTSNLASGVPSRFSGSGSGTDYTFTISSLQPEDIATYYCQQWSSHIFTFGQGTKVEIKGQPKAAPSVTLFPPSSEELQANKATLVCLISDFYPGAVTVAWKADSSPVKAGVETTTPSKQSNNKYAASSYLSLTPEQWKSHRSYSCQVTHEGSTVEKTVAPTEC
notes: The preparation held 65% correctly paired heterotetramer by LC/MS
For the molecule B1, in the assay with hEGFR-Fc, the binding result is on record as “binds”.

B2: MAControl λλ (anti-cMET/anti-Axl IgG BsAb without Fab redesigns) (bispecific antibody)
heavy 1: EVQLVESGGGLVQPGGSLRLSCAASGYTFTSYWLHWVRQAPGKGLEWVGMIDPSNSDTRFNPNFKDRFTISADTSKNTAYLQMNSLRAEDTAVYYCATYRSYVTPLDYWGQGTLVTVSSASTKGPSVFPLAPSSKSTSGGTAALGCLVKDYFPEPVTVSWNSGALTSGVHTFPAVLQSSGLYSLSSVVTVPSSSLGTQTYICNVNHKPSNTKVDKKVEPKSCDKTHTCPPCPAPELLGGPSVFLFPPKPKDTLMISRTPEVTCVVVDVSHEDPEVKFNWYVDGVEVHNAKTKPREEQYQSTYRVVSVLTVLHQDWLNGKEYKCKVSNKALPAPIEKTISKAKGQPREPQVYTLPPSRDELTKNQVSLTCLVKGFYPSDIAVEWESNGQPENNYDTTPPVLDSDGSFFLYSDLTVDKSRWQQGNVFSCSVMHEALHNHYTQKSLSLSPG
light 1: DIQMTQSPSSLSASVGDRVTITCKSSQSLLYTSSQKNYLAWYQQKPGKAPKLLIYWASTRESGVPSRFSGSGSGTDFTLTISSLQPEDFATYYCQQYYAYPWTFGQGTKVEIKGQPKAAPSVTLFPPSSEELQANKATLVCLISDFYPGAVTVAWKADSSPVKAGVETTTPSKQSNNKYAASSYLSLTPEQWKSHRSYSCQVTHEGSTVEKTVAPTEC
heavy 2: EVQLVESGGGLVQPGGSLRLSCAASGFSLSGSWIHWVRQAPGKGLEWVGWINPYRGYAYYADSVKGRFTISADTSKNTAYLQMNSLRAEDTAVYYCAREYSGWGGSSVGYAMDYWGQGTLVTVSSASTKGPSVFPLAPSSKSTSGGTAALGCLVKDYFPEPVTVSWNSGALTSGVHTFPAVLQSSGLYSLSSVVTVPSSSLGTQTYICNVNHKPSNTKVDKKVEPKSCDKTHTCPPCPAPELLGGPSVFLFPPKPKDTLMISRTPEVTCVVVDVSHEDPEVKFNWYVDGVEVHNAKTKPREEQYQSTYRVVSVLTVLHQDWLNGKEYKCKVSNKALPAPIEKTISKAKGQPREPQVYTLPPSRKELTKNQVSLTCLVKGFYPSDIAVEWESNGQPENNYKTTPPVLKSDGSFFLYSKLTVDKSRWQQGNVFSCSVMHEALHNHYTQKSLSLSPG
light 2: DIQMTQSPSSLSASVGDRVTITCRASQDVSTAVAWYQQKPGKAPKLLIYSASFLYSGVPSRFSGSGSGTDFTLTISSLQPEDFATYYCQQSYTTPPTFGQGTKVEIKGQPKAAPSVTLFPPSSEELQANKATLVCLISDFYPGAVTVAWKADSSPVKAGVETTTPSKQSNNKYAASSYLSLTPEQWKSHRSYSCQVTHEGSTVEKTVAPTEC
B2: in the assay with hHGFR(cMet)-Fc, the binding result was “binds”.

B3: HEControl λκ (anti-HER-2/anti-EGFR IgG BsAb without Fab redesigns) (bispecific antibody)
heavy 1: EVQLVESGGGLVQPGGSLRLSCAASGFTFTDYTMDWVRQAPGKGLEWVADVNPNSGGSIYNQRFKGRFTLSVDRSKNTLYLQMNSLRAEDTAVYYCARNLGPSFYFDYWGQGTLVTVSSASTKGPSVFPLAPSSKSTSGGTAALGCLVKDYFPEPVTVSWNSGALTSGVHTFPAVLQSSGLYSLSSVVTVPSSSLGTQTYICNVNHKPSNTKVDKKVEPKSCDKTHTCPPCPAPELLGGPSVFLFPPKPKDTLMISRTPEVTCVVVDVSHEDPEVKFNWYVDGVEVHNAKTKPREEQYQSTYRVVSVLTVLHQDWLNGKEYKCKVSNKALPAPIEKTISKAKGQPREPQVYTLPPSRDELTKNQVSLTCLVKGFYPSDIAVEWESNGQPENNYDTTPPVLDSDGSFFLYSDLTVDKSRWQQGNVFSCSVMHEALHNHYTQKSLSLSPG
light 1: DIQMTQSPSSLSASVGDRVTITCKASQDVSIGVAWYQQKPGKAPKLLIYSASYRYTGVPSRFSGSGSGTDFTLTISSLQPEDFATYYCQQYYIYPYTFGQGTKVEIKGQPKAAPSVTLFPPSSEELQANKATLVCLISDFYPGAVTVAWKADSSPVKAGVETTTPSKQSNNKYAASSYLSLTPEQWKSHRSYSCQVTHEGSTVEKTVAPTEC
heavy 2: QVQLVQSGAEVKKPGASVKVSCKASGYTFTSHWMHWVRQAPGQGLEWIGEFNPSNGRTNYNEKFKSKATMTVDTSTNTAYMELSSLRSEDTAVYYCASRDYDYDGRYFDYWGQGTLVTVSSASTKGPSVFPLAPSSKSTSGGTAALGCLVKDYFPEPVTVSWNSGALTSGVHTFPAVLQSSGLYSLSSVVTVPSSSLGTQTYICNVNHKPSNTKVDKKVEPKSCDKTHTCPPCPAPELLGGPSVFLFPPKPKDTLMISRTPEVTCVVVDVSHEDPEVKFNWYVDGVEVHNAKTKPREEQYQSTYRVVSVLTVLHQDWLNGKEYKCKVSNKALPAPIEKTISKAKGQPREPQVYTLPPSRKELTKNQVSLTCLVKGFYPSDIAVEWESNGQPENNYKTTPPVLKSDGSFFLYSKLTVDKSRWQQGNVFSCSVMHEALHNHYTQKSLSLSPG
light 2: DIQMTQSPSSLSASVGDRVTITCSASSSVTYMYWYQQKPGKAPKLLIYDTSNLASGVPSRFSGSGSGTDYTFTISSLQPEDIATYYCQQWSSHIFTFGQGTKVEIKRTVAAPSVFIFPPSDEQLKSGTASVVCLLNNFYPREAKVQWKVDNALQSGNSQESVTEQDSKDSTYSLSSTLTLSKADYEKHKVYACEVTHQGLSSPVTKSFNRGEC
For B3, the binding result in the assay with hEGFR-Fc is listed as “binds”.

B4: MADesign λλ (anti-cMET/anti-Axl IgG BsAb with Fab redesigns) (bispecific antibody)
heavy 1: EVQLVESGGGLVQPGGSLRLSCAASGYTFTSYWLHWVRKAPGKGLEWVGMIDPSNSDTRFNPEFKDRFTISADTSKNTAYLQMNSLRAEDTAVYYCATYRSYVTPLDYWGQGTLVTVSSASTKGPSVFPLAPSSKSTSGGTAALGCLVKDYFPEPVTVSWNSGALTSGVATGPAVLQSSGLYSLSSVVTVPSSSLGTQTYICNVNHKPSNTKVDKKVEPKSCDKTHTCPPCPAPELLGGPSVFLFPPKPKDTLMISRTPEVTCVVVDVSHEDPEVKFNWYVDGVEVHNAKTKPREEQYQSTYRVVSVLTVLHQDWLNGKEYKCKVSNKALPAPIEKTISKAKGQPREPQVYTLPPSRDELTKNQVSLTCLVKGFYPSDIAVEWESNGQPENNYDTTPPVLDSDGSFFLYSDLTVDKSRWQQGNVFSCSVMHEALHNHYTQKSLSLSPG
light 1: RIQMTQSPSSLSASVGDRVTITCKSSQSLLYTSSQKNYLAWYQDKPGKAPKLLIYWASTRESGVPSRFSGSGSGTDFTLTISSLQPEDFATYYCQQYYAYPWTFGQGTKVEIKGQPKAAPSVTLFPPSSEELQANKATLVCYISDFYPGAVTVAWKADSSPVKAGVETTTPSKQSNNKYAAWSYLSLTPEQWKSHRSYSCQVTHEGSTVEKTVAPTEC
heavy 2: EVQLVESGGGLVQPGGSLRLSCAASGFSLSGSWIHWVRYAPGKGLEWVGWINPYRGYAYYADSVKGRFTISADTSKNTAYLQMNSLRAEDTAVYYCAREYSGWGGSSVGYAMDYWGQGTLVTVSSASTKGPSVFPLAPSSKSTSGGTAALGCLVKDYFPEPVTVSWNSGALTSGVHTFPAVLQSSGLYSLSSVVTVPSSSLGTQTYICNVNHKPSNTKVDKKVEPKSCDKTHTCPPCPAPELLGGPSVFLFPPKPKDTLMISRTPEVTCVVVDVSHEDPEVKFNWYVDGVEVHNAKTKPREEQYQSTYRVVSVLTVLHQDWLNGKEYKCKVSNKALPAPIEKTISKAKGQPREPQVYTLPPSRKELTKNQVSLTCLVKGFYPSDIAVEWESNGQPENNYKTTPPVLKSDGSFFLYSKLTVDKSRWQQGNVFSCSVMHEALHNHYTQKSLSLSPG
light 2: DIQMTQSPSSLSASVGDRVTITCRASQDVSTAVAWYQRKPGKAPKLLIYSASFLYSGVPSRFSGSGSGTDFTLTISSLQPEDFATYYCQQSYTTPPTFGQGTKVEIKGQPKAAPSVTLFPPSSEELQANKATLVCLISDFYPGAVTVAWKADSSPVKAGVETTTPSKQSNNKYAASSYLSLTPEQWKSHRSYSCQVTHEGSTVEKTVAPTEC
notes: also called MA Designs
For B4, the binding result with hHGFR(cMet)-Fc is given as “binds”.
